# According to article PMC6234862, “The Structure of the Human Respiratory Syncytial Virus M2-1 Protein Bound to the Interaction Domain of the Phosphoprotein P Defines the Orientation of the Complex” (mBio, 2018):
# Where no end group is shown, it is not given here. fluorescein = fluorescein label at the peptide N-terminus
# T1: M2-1 (Human respiratory syncytial virus …, UniProt P04545 1-194)
# T1 sequence: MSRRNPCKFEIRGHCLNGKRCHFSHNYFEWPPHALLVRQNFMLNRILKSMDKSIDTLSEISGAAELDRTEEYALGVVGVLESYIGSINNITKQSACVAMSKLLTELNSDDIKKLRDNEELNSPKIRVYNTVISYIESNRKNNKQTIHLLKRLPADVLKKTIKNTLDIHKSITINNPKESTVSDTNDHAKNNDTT
# B1: P90-110 peptide, unlabeled (residues 90 to 110 of HRSV P) (peptide, UniProt P03421 90-110, looked up)
# peptide: DPTPSDNPFSKLYKETIETFD
# notes: HRSV phosphoprotein P, strain A2, residues 90-110; residues 97 to 109 seen in the density; also called P peptide; source: synthetic peptide (ProteoGenix)
# B2: Human respiratory syncytial virus (HRSV) M2-1 protein, full-length native tetramer (natural protein)
# chain: MSRRNPCKFEIRGHCLNGKRCHFSHNYFEWPPHALLVRQNFMLNRILKSMDKSIDTLSEISGAAELDRTEEYALGVVGVLESYIGSINNITKQSACVAMSKLLTELNSDDIKKLRDNEELNSPKIRVYNTVISYIESNRKNNKQTIHLLKRLPADVLKKTIKNTLDIHKSITINNPKESTVSDTNDHAKNNDTT
# notes: HRSV M2-1 protein, strain A2, M2-1 ORF; 194 amino acids; Also used here as the wild-type M2-1 of the minigenome rows, where it was expressed from a plasmid in BSRT7 cells; also called native M2-1; tetrameric M2-1; source: E. coli BL21(DE3) Gold, purified (glutathione Sepharose, on-column PreScission cleavage, SP Sepharose; Superdex 75 for crystallization); not shown: GST, N-terminal, cleaved
# How the values were obtained:
# [1] = molecular target: GST-P1-241 (full-length HRSV phosphoprotein P fused to GST) (human respiratory syncytial virus, strain A2) (UniProt P03421)
# [2] = molecular target: B2; experiment: pull-down; GST-P constructs from clarified E. coli lysates held on glutathione Sepharose 4B and washed; 1 mg purified M2-1 added, room temperature, 5 min; 25 mM Tris/HCl pH 7.4, 150 mM NaCl, 1 mM DTT; SDS-PAGE, Coomassie staining; conditions: both partners purified
# [3] = molecular target: B2; experiment: crystal structure; M2-1 tetramer mixed with P90-110 in a 1:1 molar ratio, concentrated to 8 mg/ml; sitting drop vapor diffusion at 18°C; 0.2 M trimethylamine N-oxide dihydrate, 0.1 M Tris-HCl pH 8.5, 2% PEG MME 2000; 2.4 Å; conditions: both partners purified
# M2-1 = molecular target: T1, M2-1; experiment: fluorescence anisotropy competition; displaces 10 nM fluorescein-P90-110 peptide from 1 uM M2-1; 20 mM Tris-Cl pH 7.5, 150 mM NaCl, 0.01% Triton X-100, room temperature, 30 min; conditions: protein: recombinant; tags: GST removed by PreScission protease; chain copies: 4; single strand
# [4] = molecular target: B2; experiment: fluorescence polarisation; fluorescence anisotropy, direct binding; 10 nM fluorescein-labeled P90-110, M2-1 0.1 nM to 300 μM; 20 mM Tris-Cl pH 7.5, 150 mM NaCl, 0.01% Triton X-100; 30 min at room temperature; 384-well; triplicate; apparent; conditions: both partners purified
# [5] = molecular target: the molecule itself; experiment: crystal structure; M2-1 tetramer mixed with P90-110 in a 1:1 molar ratio, concentrated to 8 mg/ml; sitting drop vapor diffusion at 18°C; 0.2 M trimethylamine N-oxide dihydrate, 0.1 M Tris-HCl pH 8.5, 2% PEG MME 2000; 2.4 Å
# [6] = molecular target: B1; experiment: as above; conditions: both partners purified
# [7] = molecular target: T2, GST-P1-241 (full-length HRSV phosphoprotein P fused to GST) (human respiratory syncytial virus, …, UniProt P03421 1-241); experiment: pull-down; GST-P constructs from clarified E. coli lysates held on glutathione Sepharose 4B and washed; 1 mg purified M2-1 added, room temperature, 5 min; 25 mM Tris/HCl pH 7.4, 150 mM NaCl, 1 mM DTT; SDS-PAGE, Coomassie staining; conditions: both partners purified
# T2 construct: pGEX-6P-2 construct; Also used here as the wild-type P of the minigenome rows, where P was expressed from a plasmid in BSRT7 cells (no GST told there); also called WT P; not shown: GST, N-terminal, kept
molecule,measurement,setting,value
HRSV M2-1 R126E (from UniProt P04545 1-194) (natural protein),"HRSV minigenome assay, eGFP fluorescence in BSRT7 cells relative to WT M2-1",[1],30 % of WT M2-1
HRSV M2-1 L148A (from UniProt P04545 1-194) (natural protein),"HRSV minigenome assay, eGFP fluorescence in BSRT7 cells relative to WT M2-1",[1],30 % of WT M2-1
"DPTPSDNPFSKLYKETIETFD (domain or fragment, UniProt P03421 90-110, looked up, HRSV phosphoprotein P, strain A2, residues 90-110; pGEX-6P-2 construct; also called P90–110 (GST fusion); not shown: GST, N-terminal, kept) [GST-P90-110]",binding result,[2],binds
B1,binding result,[3],binds
AAAAAAAAAAAAA (ssRNA) [A13 (poly(A) RNA 13-mer)],IC50,M2-1,1700 nM
"GST-P90-160 (domain or fragment, HRSV phosphoprotein P, strain A2, residues 90-160; pGEX-6P-2 construct; not shown: GST, N-terminal, kept) DPTPSDNPFSKLYKETIETFDNNEEESSYSYEEINDQTNDNITARLDRIDEKLSEILGMLHTLVVASAGPT",binding result,[2],binds
"fluorescein-DPTPSDNPFSKLYKETIETFD (peptide, UniProt P03421 90-110, looked up, HRSV phosphoprotein P, residues 90-110; Strain A2 is stated for the unlabeled peptide; source: synthetic peptide (ProteoGenix)) [Fluorescein-labeled P90-110 peptide]",Kd,[4],7.5 µM
B2,stoichiometry N,[5],4
same,stoichiometry N,[6],1
same,binding result,[7],binds
